Experiments:
[1] = system: ceramide-activated protein kinase; test: EGFR peptide phosphorylation in a cell-free system (HL-60 nuclei-free supernate); type: biochemical, human (HL-60 cells)
Procedure: Effect of TNF-α on ceramide-activated protein kinase activity. HL-60 cells were incubated in serum-free medium and homogenized (as in FIG. 9). […] ATP (750 μM, 4000 dpm pmol^-1), and 75 μl of reaction buffer. […] Phosphorylated peptide was first run on a C18 Sep-Pak cartridge, then resolved by C18 reverse-phase HPLC (Waters, Milford, Mass.), with a linear gradient of acetonitrile. The peptide eluted at 30% acetonitrile, as determined by monitoring Cerenkov radiation in 1-ml fractions. Background activity was subtracted from each point. (A) Kinetics of TNF-α (30 nM)-stimulated EGFR peptide phosphorylation. Values (mean) represent data from four experiments. (B) Concentration dependence of EGFR peptide phosphorylation at 5 minutes of stimulation with TNF-α (0.01 to 30 nM). Values (mean) represent data derived from duplicate points in two experiments. The SEM of the values in (A) was 18% and the mean range of values in (B) was 3%.
Effect of phospholipases on ceramide-activated protein kinase activity. Nuclei-free supernates, prepared as in FIG. 9, were first incubated with TNF-α (3 nM) or added directly to reaction mixtures that contained various phospholipases; sphingomyelinase (SMase) (1×10^-3 U ml^-1, S. aureus), phospholipase A2 (PlA2) (3.8×10^-2 and 3.8×10^-1 U ml^-1, Vipera ruselli), phospholipase C (PLC) (3.8×10^-2 U ml^-1, Bacillus cereus) and phospholipase D (PLD) (3.8×10^-2 U ml^-1, Streptomyces chromocuscus). Peptide phosphorylation was measured as in FIG. 10. Control value represents peptide phosphorylation in the absence of phospholipases or TNF-α. Values (mean±SEM) represent data derived from duplicate samples in three experiments. *P<0.001 compared to control.
The effect of TNF-α on ceramide-activated protein kinase activity was assessed. […] For studies assessing the effect of TNFα in broken cell preparations, nuclei-free supernates were incubated under conditions sufficient for stimulation of neutral sphingomyelinase in a reaction mixture that also contained EGFR peptide and γ-^32 P-labeled ATP. Phosphorylated peptide was resolved by high-performance liquid chromatograph (HPLC) and quantified by Cerenkov counting. Kinase activity was calculated from the specific activity of [γ-^32 P] ATP and incorporation of ^32 P into EGFR peptide. Background activity was subtracted from each point. […] TNF-α stimulation of kinase activity was evident by 1 minute and demonstrable for at least 10 minutes. If the initial incubation with TNF-α at 4° C. was omitted and TNF was added directly to the reaction mixture at 22° C., the reaction was delayed. […] TNF-α enhanced kinase activity in a concentration-dependent manner at 5 minutes (FIG. 10B). […] This is similar to the ED50 of 200 pM for stimulation of ceramide-activated protein kinase by TNF-α in intact cells. TNF-α enhanced kinase activity in a total of 20 separate studies.
Control activity reflects several TNF-α-independent protein kinases that are known to phosphorylate EGFR peptide on Thr^669.

[2] = system: Raf-1; test: Raf-1 phosphorylation in intact HL-60 cells; type: cell-based, human (HL-60 cells)
Procedure: To examine this possibility, intact HL-60 cells were metabolically labeled with ^32 P-orthophosphate for 4 hr followed by stimulation with TNF for the indicated times (FIG. 20A). […] Raf-1 proteins were resolved by SDS-PAGE and autoradiographed.
FIG. 20A--300×10^6 cells were resuspended at 37° C. in 15 ml of serum-free phosphate-free RPMI medium ([…]) containing 6 mCi ^32 P-orthophosphate. After […], cells were resuspended into the same buffer without radiolabel (5×10^7 /point) and stimulated with TNF (1 nM). At the indicated times, ice-cold serum-free phosphate-free RPMI was added and cells were homogenized as described in FIG. 17 in RIPA lysis buffer. Cell debris was removed by centrifugation at 700×g for 5 min. […] After SDS-PAGE, Raf-1 was transferred to an Immobilon PVDF (Millipore) membrane according to the vendor's instructions. […] The data (CPM/Raf protein) are presented as fold of control and represent one of three studies performed in triplicate.

[3] = biological target: T1, KSR (Mus musculus, UniProt Q61097); test: Phosphorylation and activation of recombinant Raf-1 by KSR immunoprecipitated from treated COS-7 cells; type: cell-based, mouse (KSR expressed in COS-7 cells); details: C2-ceramide 1 μM; TNFα 10 nM
T1 sequence (Q61097 1-873): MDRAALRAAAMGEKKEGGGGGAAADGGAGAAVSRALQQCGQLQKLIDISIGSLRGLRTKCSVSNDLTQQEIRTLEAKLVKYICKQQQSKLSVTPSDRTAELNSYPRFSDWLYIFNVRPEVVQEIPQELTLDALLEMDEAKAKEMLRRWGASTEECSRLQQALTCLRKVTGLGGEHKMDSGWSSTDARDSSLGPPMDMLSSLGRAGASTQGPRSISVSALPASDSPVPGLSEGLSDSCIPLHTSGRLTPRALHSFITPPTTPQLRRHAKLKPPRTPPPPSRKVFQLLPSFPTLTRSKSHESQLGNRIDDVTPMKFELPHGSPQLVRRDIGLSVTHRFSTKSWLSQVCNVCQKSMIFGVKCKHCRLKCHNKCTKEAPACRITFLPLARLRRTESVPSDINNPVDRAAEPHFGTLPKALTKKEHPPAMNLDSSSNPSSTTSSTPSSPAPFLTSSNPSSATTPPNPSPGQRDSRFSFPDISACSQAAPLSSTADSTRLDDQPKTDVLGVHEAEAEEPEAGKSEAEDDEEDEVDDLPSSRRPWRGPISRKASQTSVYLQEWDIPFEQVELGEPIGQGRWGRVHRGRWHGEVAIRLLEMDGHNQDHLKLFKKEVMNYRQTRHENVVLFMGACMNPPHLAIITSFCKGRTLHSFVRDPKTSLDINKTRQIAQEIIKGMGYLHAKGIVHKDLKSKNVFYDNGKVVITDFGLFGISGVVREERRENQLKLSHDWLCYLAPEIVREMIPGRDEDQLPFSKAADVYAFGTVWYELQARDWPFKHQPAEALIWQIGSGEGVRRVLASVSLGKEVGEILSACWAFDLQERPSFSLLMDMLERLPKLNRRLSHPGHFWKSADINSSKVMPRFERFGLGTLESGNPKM
Procedure: FIGS. 23B-23C--COS-7 cells expressing Flag-tagged KSR were stimulated with 1 μM C2-ceramide for 10 min and lysed with NP-40 buffer as in FIG. 23A. […] The autoradiogram was exposed for 1 hour. Data represent one of three experiments.
COS-7 cells expressing Flag-tagged KSR were stimulated with 10 nM TNFα for the times indicated and lysed with NP-40 buffer as in FIG. 2A. […] The autoradiogram was exposed for 1 hour. Data represent one of three similar experiments.
Immunoprecipitated KSR was incubated with reaction buffer A containing 0.5 mM ATP and a protein kinase inhibitor cocktail [20 μM PKC inhibitor peptide (UBI), 2 μM protein kinase A inhibitor peptide (UBI) and 20 μM R24571 (Sigma)] for 30 min at 22° C.

TNF-α
concentration of maximal effect (kinase activity) ([1]; 5 minutes): 3 nM
effective concentration (kinase activity) ([1]; 5 minutes): 10 pM
ED50 for kinase activity ([1]; 5 minutes, cell-free): ≈ 300 pM
onset of stimulation of kinase activity ([1]; TNF-α 30 nM, P<0.001): ≤ 1 min
duration of elevated Raf-1 phosphorylation ([2]; TNF): at least 20 min
Raf-1 phosphorylation in intact HL-60 cells ([2]; TNF 1 nM, ceramide, sphingomyelinase 10 mU/ml): increased within seconds
activity of immunoprecipitated KSR to phosphorylate and activate Raf-1 [3]: stimulated dramatically
